Assays:
Experiment in all cases: two-hybrid; LexA-Cdc1 bait (pBTM116 or pBTM116BN) with Gal4 activation domain-Cdc27 prey (pGAD2F-Cdc27) in S. cerevisiae CTY10-5d; ONPG liquid culture beta-galactosidase assay, mean of triplicates, as percent of wild-type Cdc1
Details in all cases: partners not purified
Cdc1-E2 = target: T1, Cdc1-E2 (Schizosaccharomyces pombe, UniProt P87324 1-26)
T1 construct: Cdc1, S. pombe, truncated after amino acid 26 by a 16 nt insertion; residues coded by the 16 nt insertion before the stop codon (printed as GlyValProLysTer); source: yeast two-hybrid fusion, in S. cerevisiae CTY10-5d
T1 chain: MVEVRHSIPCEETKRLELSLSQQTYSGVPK

Cdc1-A9 = target: T2, Cdc1-A9 (Schizosaccharomyces pombe, UniProt P87324 1-462, Pro292Ala | Gly293Ala)
T2 construct: Cdc1, S. pombe, double point mutant (A1 and A2 combined); source: yeast two-hybrid fusion, in S. cerevisiae CTY10-5d
T2 sequence (looked up): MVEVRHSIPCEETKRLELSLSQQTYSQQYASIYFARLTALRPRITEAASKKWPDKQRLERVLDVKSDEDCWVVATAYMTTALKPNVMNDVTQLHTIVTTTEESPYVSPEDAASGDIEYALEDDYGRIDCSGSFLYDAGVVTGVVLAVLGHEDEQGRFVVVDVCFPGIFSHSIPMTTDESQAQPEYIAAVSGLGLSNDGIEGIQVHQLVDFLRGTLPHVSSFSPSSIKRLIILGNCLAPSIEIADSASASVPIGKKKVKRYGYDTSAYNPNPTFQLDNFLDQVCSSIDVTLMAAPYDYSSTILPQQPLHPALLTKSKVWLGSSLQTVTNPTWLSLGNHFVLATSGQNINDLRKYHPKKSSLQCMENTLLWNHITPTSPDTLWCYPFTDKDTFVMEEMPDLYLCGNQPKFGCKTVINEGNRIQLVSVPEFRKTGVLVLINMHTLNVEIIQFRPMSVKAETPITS

Cdc1-J8 = target: T3, Cdc1-J8 (Schizosaccharomyces pombe, UniProt P87324 1-462, Lys-GlyValProLeuLys-Pro)
T3 construct: Cdc1, S. pombe, with a pentapeptide inserted after residue 83; also called J19; source: yeast two-hybrid fusion, in S. cerevisiae CTY10-5d
T3 sequence (looked up): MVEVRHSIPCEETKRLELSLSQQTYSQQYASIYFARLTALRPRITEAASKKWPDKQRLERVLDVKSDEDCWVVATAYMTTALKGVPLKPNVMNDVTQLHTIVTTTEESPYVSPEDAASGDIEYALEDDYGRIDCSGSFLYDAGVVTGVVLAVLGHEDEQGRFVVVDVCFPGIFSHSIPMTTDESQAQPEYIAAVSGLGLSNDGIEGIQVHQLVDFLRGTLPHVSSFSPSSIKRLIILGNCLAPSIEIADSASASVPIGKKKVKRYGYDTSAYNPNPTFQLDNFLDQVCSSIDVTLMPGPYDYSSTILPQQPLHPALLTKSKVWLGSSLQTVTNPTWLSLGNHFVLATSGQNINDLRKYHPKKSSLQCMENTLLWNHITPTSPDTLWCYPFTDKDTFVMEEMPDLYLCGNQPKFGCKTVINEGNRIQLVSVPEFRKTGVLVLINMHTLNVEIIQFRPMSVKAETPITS

Cdc1-A1 = target: T4, Cdc1-A1 (Schizosaccharomyces pombe, UniProt P87324 1-462, Pro292Ala)
T4 construct: Cdc1, S. pombe, point mutant; source: yeast two-hybrid fusion, in S. cerevisiae CTY10-5d
T4 sequence (looked up): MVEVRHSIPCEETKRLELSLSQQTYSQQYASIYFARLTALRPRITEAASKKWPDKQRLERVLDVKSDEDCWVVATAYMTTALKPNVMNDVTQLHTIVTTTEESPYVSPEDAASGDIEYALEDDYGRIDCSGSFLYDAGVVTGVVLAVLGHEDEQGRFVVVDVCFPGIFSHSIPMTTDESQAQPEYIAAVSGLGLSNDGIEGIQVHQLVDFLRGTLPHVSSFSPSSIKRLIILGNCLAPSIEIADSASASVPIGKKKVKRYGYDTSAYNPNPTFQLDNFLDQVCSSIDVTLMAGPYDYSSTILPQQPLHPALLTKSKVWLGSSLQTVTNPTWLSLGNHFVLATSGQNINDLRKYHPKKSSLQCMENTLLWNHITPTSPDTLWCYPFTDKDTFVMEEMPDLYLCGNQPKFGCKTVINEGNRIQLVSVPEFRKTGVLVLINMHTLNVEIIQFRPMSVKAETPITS

Cdc1-J15 = target: T5, Cdc1-J15 (Schizosaccharomyces pombe, UniProt P87324 1-462, Gln-GlyValProLeuGln-Val)
T5 construct: Cdc1, S. pombe, with a pentapeptide inserted after residue 203; source: yeast two-hybrid fusion, in S. cerevisiae CTY10-5d
T5 sequence (looked up): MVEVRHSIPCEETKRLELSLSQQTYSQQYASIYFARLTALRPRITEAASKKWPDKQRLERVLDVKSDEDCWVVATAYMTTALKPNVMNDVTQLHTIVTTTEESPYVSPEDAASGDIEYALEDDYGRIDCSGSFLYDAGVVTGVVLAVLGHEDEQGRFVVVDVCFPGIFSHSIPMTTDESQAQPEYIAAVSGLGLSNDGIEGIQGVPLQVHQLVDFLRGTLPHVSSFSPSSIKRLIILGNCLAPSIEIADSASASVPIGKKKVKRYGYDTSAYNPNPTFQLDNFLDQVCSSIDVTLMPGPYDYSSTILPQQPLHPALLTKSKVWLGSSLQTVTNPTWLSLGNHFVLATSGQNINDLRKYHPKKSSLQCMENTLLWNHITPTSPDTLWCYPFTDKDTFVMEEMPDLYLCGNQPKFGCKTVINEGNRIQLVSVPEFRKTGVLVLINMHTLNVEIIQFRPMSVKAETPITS

two-hybrid beta-galactosidase activity, % of wild-type Cdc1 (Cdc1-E2): < 1% | two-hybrid beta-galactosidase activity, % of wild-type Cdc1 (Cdc1-A9): 58% | two-hybrid beta-galactosidase activity, % of wild-type Cdc1 (Cdc1-J8): 128% | two-hybrid beta-galactosidase activity, % of wild-type Cdc1 (Cdc1-A1): 44% | two-hybrid beta-galactosidase activity, % of wild-type Cdc1 (Cdc1-J15): 78%
B1: Cdc27 (fission yeast DNA polymerase delta C-subunit) (natural protein, Schizosaccharomyces pombe, UniProt P30261 1-372, looked up)
chain: MEEWRNFLDIKVINESSLVTVDNLSLQLDISSEKAQEYLNMFYQGNDFLYPIYLIHGQPIDDEINLEIDEESQPISNFPVLQYILCDKSSLQEKQSRLKSGYKTVIFALSSAPLSDFDELLPAVYEIREKDVLYKKEDADKYGFIFNENSVPRVLKKAPSTHSPQLSVPSKTSTIDKTDTRSTEKTKGKDIFSNARNQKGNSSRKNKKAPLENHKEKEPLLPKEEKLSEQAKRERDDLKNIMQLEDESVSTTSVHDSEDDNLDSNNFQLEIGTEAKSAAPDEPQEIIKSVSGGKRRGKRKVKKYATTKDEEGFLVTKEEEVWESFSEDENISTGTSNVVRNKPTTVNIATKKKNTAQSKPQQKSIMSFFGKK
notes: DNA polymerase delta C-subunit Cdc27, S. pombe; prey plasmid pGAD2F-Cdc27; also called pGAD2F-Cdc27; source: yeast two-hybrid fusion, in S. cerevisiae CTY10-5d
